In US20200277374A1 (Alector, published 2020):

B1: anti-Siglec-7 antibody 10G8 (antibody, V domains shown)
VH: EVKLVEFGGALVKPGGSLKLSCAALGFTFSTYAMFRVRQTPEKREEGVASISSGGRYTYYPDSAKDRHPIFRDNARNTLYLQMSSLRSKDTAMYYCVRHSYGSSYWYLDVWGAGTTVTVSS
VL: DIQMTQFPATLSGTPGDRVZLSRRASQSIREYLHWYQQKSHESPRLZIKFASQSICGIPSRFSGSGSGSDFTLSINTVEPEDVGVYYCQKAHNFPYTFGGGTKLEIK
notes: Variable domains assembled from FR and CDR entries
B2: anti-Siglec-7 antibody 2G4 (antibody, V domains shown)
VH: QVQLQQSGSELRSPGSSVKLSCKDFDSEVFPITYMNWVRQKPGHGFEWIGDILPSIGRTMYGEKFEDKATLDADTVSNTAYLELNSLTSEDSAIYYCARSEGYLLAYWGQGTLVTVSA
VL: DIQMTQSLSYLSVSLGGRVTITCKASDHINNWLAWYQQKPGNAPRLLISGATSLETGFPSRFSGSGSGKDYTLSITSLQTEDVATYYCHQYWNTPYTFGGGTRLEIK
notes: as for B1

What was measured:
[1] = target: T1, human Siglec-7 expressed on human cells (primary monocytes, dendritic cells, macrophages, NK cells, … (human, UniProt Q9Y286 19-467)); assay: cell-based or functional assay
T1 sequence (Q9Y286 19-467): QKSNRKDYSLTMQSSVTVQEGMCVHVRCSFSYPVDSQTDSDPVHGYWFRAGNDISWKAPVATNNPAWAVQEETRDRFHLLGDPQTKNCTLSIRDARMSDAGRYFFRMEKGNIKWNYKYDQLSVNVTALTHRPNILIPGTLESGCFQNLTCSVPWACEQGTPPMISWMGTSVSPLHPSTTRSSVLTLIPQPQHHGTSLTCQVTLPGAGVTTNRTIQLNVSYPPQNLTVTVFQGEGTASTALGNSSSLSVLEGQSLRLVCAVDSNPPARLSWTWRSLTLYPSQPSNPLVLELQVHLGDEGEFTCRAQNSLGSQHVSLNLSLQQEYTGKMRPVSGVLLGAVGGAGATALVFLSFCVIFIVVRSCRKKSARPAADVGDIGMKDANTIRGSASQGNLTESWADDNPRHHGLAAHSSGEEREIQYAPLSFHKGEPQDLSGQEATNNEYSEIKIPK

[2] = target: T1, human Siglec-7 expressed on human cells …; assay: cell-based or functional assay; remark: listed apart in the source
[3] = target: T1, human Siglec-7 expressed on human cells …; assay: FACS, human primary monocytes, 10 ug/ml mAb
[4] = target: T1, human Siglec-7 expressed on human cells …; assay: FACS, human primary macrophages, 10 ug/ml mAb
[5] = target: T1, human Siglec-7 expressed on human cells …; assay: FACS, human primary dendritic cells, 10 ug/ml mAb
[6] = target: T2, Histidine-tagged human Siglec-7 (NovoProtein) (human, UniProt Q9Y286 19-357, limits assumed); assay: SPR (BiaCore T200, 25 C), antibody captured on anti-mouse IgG, Siglec-7-His 10 nM, single-concentration kinetics
T2 construct: Bought protein; also called purified Siglec-7-his tagged protein; not shown: histidine tag
T2 sequence (Q9Y286 19-357 limits assumed): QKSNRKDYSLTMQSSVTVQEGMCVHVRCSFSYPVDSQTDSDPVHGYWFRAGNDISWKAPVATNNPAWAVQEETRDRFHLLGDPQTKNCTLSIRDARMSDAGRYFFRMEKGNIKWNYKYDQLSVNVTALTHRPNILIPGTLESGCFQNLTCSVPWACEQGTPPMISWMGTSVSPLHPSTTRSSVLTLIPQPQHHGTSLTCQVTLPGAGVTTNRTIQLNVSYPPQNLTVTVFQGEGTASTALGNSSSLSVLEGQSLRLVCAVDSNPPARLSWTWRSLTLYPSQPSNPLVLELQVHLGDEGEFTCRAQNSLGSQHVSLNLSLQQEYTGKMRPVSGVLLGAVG
Description: (§1) SPR data was collected at a rate of 10 Hz at 25′ C on a BiaCore T200 instrument. Data analysis was performed using BiaCore T200 Evaluation Software, version 2.0. HBS-EP+ (100 mM HEPES, 1.5 M NaCl, 30 mM EDTA, 0.5% v/v Surfactant P20, pH 7.4) was used as running buffer and for preparing reagents.
(§2) Mouse-derived antibodies (25 nM) against Siglec-7 were captured (60 s contact time, 30 μL/min flow rate, 0 s stabilization time) on a CM5 sensor chip (GE Healthcare) immobilized with anti-mouse IgG. Histidine-tagged human Siglec-7 (NovoProtein) was then flowed over the captured anti-Siglec-7 surface (120 s contact time, 30 μL/min flow rate, 300 s dissociation time). Concentration of antigen ranged from 5 nM to 100 nM, depending on information obtained from an initial screen. Duplicate single-concentration trials were performed and bracketed by a blank (0 nM antigen) sample. The chip surface was regenerated in between cycles using 10 mM glycine-HCl, pH1.7 (60 s contact time, 30 μL/min flow rate, 60 s stabilization time). The resulting SPR signal was obtained as the difference in response from measurements performed on a blank flow cell.
(§3) Affinity constants (KD) were calculated from the ratio kd/kₐ. For one antibody (clone 1E8), we validated the single-concentration analysis with a multiple-concentration approach (five concentrations of antigen used, plus one blank).

[7] = target: T3, Siglec-7-Fc (plate immobilized) (human, UniProt Q9Y286 19-357, limits assumed); assay: RBC solid adhesion assay, plate-coated Siglec-7-Fc, antibody 0.5 or 1.0 ug/ml; % of RBC binding without antibody
T3 construct: also called Siglec-7-Fc protein; immobilized Siglec-7; not shown: Fc part
T3 sequence (Q9Y286 19-357 limits assumed): as above
Outline: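 Plates coated overnight at RT with 5 μg/ml Siglec-7-Fc and blocked in PBS with BSA and 1 mM CaCl₂. Antibody (0.5 or 1.0 μg/ml) bound 1 h at RT, then RBCs (3.0×10⁶ cells/ml) added for 1 h at RT. Bound RBCs lysed and detected by peroxidase at 450 nm, expressed as % of binding without antibody.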

[8] = target: T2, Histidine-tagged human Siglec-7 …; assay: SPR (BiaCore T200, 25 C), antibody captured on anti-mouse IgG, Siglec-7-His 50 nM, single-concentration kinetics
Description: as §1, §2, §3

| Binder | Percent Siglec-7 Surface Expression, DCs [1] | Percent Siglec-7 Surface Expression, Monocytes [1] | Percent Siglec-7 Surface Expression, U937 cells [1] | Percent Siglec-7 Surface Expression, Macrophages [2] | Percent Siglec-7 Surface Expression, NK cells [2] | % Positive [3] | MFI [3] | % Positive [4] | MFI [4] | % Positive [5] | MFI [5] | Kd [6] | Percent RBC Binding to Siglec-7 [7] | Percent Siglec-7 Surface Expression, Microglia [2] | Kd [8] |
| --- | --- | --- | --- | --- | --- | --- | --- | --- | --- | --- | --- | --- | --- | --- | --- |
| B1 | 10.5% | 30.9% | 83.8% | 9.2% | 74.7% | 99.1% | 523 | 99.7% | 3280 | 99.5% | 897 | 0.6 nM | 111% |  |  |
| B2 | 98.1% | 29.3% | 84.6% | 14.1% | 126% | 99.3% | 512 | 99.5% | 15500 | 99.7% | 5750 |  | 11.6% | 23% | 0.4 nM |
